# From the supplement of paper PMC10567573
# B1: CSTF3 (parent)
# chain: YVPEKVKKAEKKLEENPYDLDAWS
# Variants of: B1
# Assay: protein stability index of a GFP-peptide fusion (GPS, HEK-293T) (PSI 1-6); higher = more stable
# Conditions: c terminus: a fixed tail appended
# 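Note: lentivirally expressed fusions sorted by FACS into six bins by GFP to DsRed ratio, PSI derived from sequencing read proportions per bin multiplied by bin number.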
row,Variant,protein stability index
1,YVPEKVKKSEKKLEENPYDLDAWS,2.27
2,YVPEKVKKGEKKLEENPYDLDAWS,3.46
3,YVPEKVKKWEKKLEENPYDLDAWS,3.31
4,YVPEKVKKQEKKLEENPYDLDAWS,2.11
5,YVPEKVKKCEKKLEENPYDLDAWS,2.11
6,YVPEKVKKMEKKLEENPYDLDAWS,2.16
7,YVPEKVKKLEKKLEENPYDLDAWS,2.32
8,YVPEKVKKHEKKLEENPYDLDAWS,2.85
9,YVPEKVKKVEKKLEENPYDLDAWS,2.64
10,YVPEKVKKKEKKLEENPYDLDAWS,2.59
11,YVPEKVKKTEKKLEENPYDLDAWS,2.66
12,YVPEKVKKIEKKLEENPYDLDAWS,2.59
13,YVPEKVKKFEKKLEENPYDLDAWS,3.1
14,YVPEKVKKDEKKLEENPYDLDAWS,1.65
15,YVPEKVKKEEKKLEENPYDLDAWS,1.96
16,YVPEKVKKREKKLEENPYDLDAWS,3.47
17,YVPEKVKKYEKKLEENPYDLDAWS,3.21
18,YVPEKVKKPEKKLEENPYDLDAWS,4.02
19,YVPEKVKKAELKLEENPYDLDAWS,2.31
20,YVPEKVKKAEGKLEENPYDLDAWS,2.01
21,YVPEKVKKAECKLEENPYDLDAWS,2.65
22,YVPEKVKKAEIKLEENPYDLDAWS,3.43
23,YVPEKVKKAEDKLEENPYDLDAWS,2.07
24,YVPEKVKKAEAKLEENPYDLDAWS,2.32

row,Variant,protein stability index
1,YVPEKVKKAEEKLEENPYDLDAWS,2.54
2,YVPEKVKKAENKLEENPYDLDAWS,2.67
3,YVPEKVKKAEFKLEENPYDLDAWS,2.06
4,YVPEKVKKAEMKLEENPYDLDAWS,2.42
5,YVTEKVKKAEKKLEENPYDLDAWS,2.35
6,YVEEKVKKAEKKLEENPYDLDAWS,2.7
7,YVVEKVKKAEKKLEENPYDLDAWS,1.97
8,YVIEKVKKAEKKLEENPYDLDAWS,1.99
9,YVREKVKKAEKKLEENPYDLDAWS,2.44
10,YVYEKVKKAEKKLEENPYDLDAWS,3.21
11,YVWEKVKKAEKKLEENPYDLDAWS,1.76
12,YVFEKVKKAEKKLEENPYDLDAWS,1.89
13,YVCEKVKKAEKKLEENPYDLDAWS,2.46
14,YVMEKVKKAEKKLEENPYDLDAWS,1.79
15,YVKEKVKKAEKKLEENPYDLDAWS,2.15
16,YVDEKVKKAEKKLEENPYDLDAWS,2.69
17,YVHEKVKKAEKKLEENPYDLDAWS,2.47
18,YVNEKVKKAEKKLEENPYDLDAWS,2.12
19,YVGEKVKKAEKKLEENPYDLDAWS,2.28
20,YVSEKVKKAEKKLEENPYDLDAWS,2.23
21,YVQEKVKKAEKKLEENPYDLDAWS,1.89
22,YVAEKVKKAEKKLEENPYDLDAWS,2.27
23,YVLEKVKKAEKKLEENPYDLDAWS,1.74
24,YVPQKVKKAEKKLEENPYDLDAWS,3.41

row,Variant,protein stability index
1,YVPGKVKKAEKKLEENPYDLDAWS,2.58
2,YVPPKVKKAEKKLEENPYDLDAWS,2.3
3,YVPVKVKKAEKKLEENPYDLDAWS,2.69
4,YVPTKVKKAEKKLEENPYDLDAWS,2.56
5,YVPWKVKKAEKKLEENPYDLDAWS,2.28
6,YVPRKVKKAEKKLEENPYDLDAWS,2.8
7,YVPNKVKKAEKKLEENPYDLDAWS,2.19
8,YVPMKVKKAEKKLEENPYDLDAWS,1.9
9,YVPIKVKKAEKKLEENPYDLDAWS,2.8
10,YVPCKVKKAEKKLEENPYDLDAWS,2.43
11,YVPKKVKKAEKKLEENPYDLDAWS,3.35
12,YVPYKVKKAEKKLEENPYDLDAWS,3.67
13,YVPAKVKKAEKKLEENPYDLDAWS,3.03
14,YVPSKVKKAEKKLEENPYDLDAWS,1.62
15,YVPHKVKKAEKKLEENPYDLDAWS,2.44
16,YVPFKVKKAEKKLEENPYDLDAWS,2.49
17,YVPEKQKKAEKKLEENPYDLDAWS,2.35
18,YVPEKGKKAEKKLEENPYDLDAWS,2.04
19,YVPEKSKKAEKKLEENPYDLDAWS,2.15
20,YVPEKTKKAEKKLEENPYDLDAWS,1.58
21,YVPEKWKKAEKKLEENPYDLDAWS,2.57
22,YVPEKEKKAEKKLEENPYDLDAWS,2
23,YVPEKYKKAEKKLEENPYDLDAWS,2.75
24,YVPEKNKKAEKKLEENPYDLDAWS,2.72

row,Variant,protein stability index
1,YVPEKHKKAEKKLEENPYDLDAWS,2.04
2,YVPEKDKKAEKKLEENPYDLDAWS,2.22
3,YVPEKPKKAEKKLEENPYDLDAWS,1.26
4,YVPEKRKKAEKKLEENPYDLDAWS,1.35
5,YVPEKIKKAEKKLEENPYDLDAWS,3.77
6,YVPEKMKKAEKKLEENPYDLDAWS,2.66
7,YVPEKVKNAEKKLEENPYDLDAWS,2.92
8,YVPEKVKTAEKKLEENPYDLDAWS,2.37
9,YVPEKVKSAEKKLEENPYDLDAWS,3.26
10,YVPEKVKRAEKKLEENPYDLDAWS,2.54
11,YVPEKVKQAEKKLEENPYDLDAWS,3.12
12,YVPEKVKEAEKKLEENPYDLDAWS,2.9
13,YVPEKVKVAEKKLEENPYDLDAWS,2.21
14,YVPEKVKDAEKKLEENPYDLDAWS,2.48
15,YVPEKVKFAEKKLEENPYDLDAWS,3.78
16,YVPEKVKAAEKKLEENPYDLDAWS,3.58
17,YVPEKVKYAEKKLEENPYDLDAWS,1.72
18,YVPEKVKMAEKKLEENPYDLDAWS,2.97
19,YVPEKVKHAEKKLEENPYDLDAWS,2.27
20,YVPEKVKCAEKKLEENPYDLDAWS,2.34
21,YVPEKVKWAEKKLEENPYDLDAWS,3.37
22,YVPEKVKIAEKKLEENPYDLDAWS,3.65
23,YVPEEVKKAEKKLEENPYDLDAWS,1.77
24,YVPEWVKKAEKKLEENPYDLDAWS,2.45

row,Variant,protein stability index
1,YVPECVKKAEKKLEENPYDLDAWS,2.71
2,YVPETVKKAEKKLEENPYDLDAWS,2.93
3,YVPENVKKAEKKLEENPYDLDAWS,3.5
4,YVPEYVKKAEKKLEENPYDLDAWS,3.04
5,YVPEDVKKAEKKLEENPYDLDAWS,1.9
6,YVPEPVKKAEKKLEENPYDLDAWS,2.55
7,YVPEFVKKAEKKLEENPYDLDAWS,2.19
8,YVPEMVKKAEKKLEENPYDLDAWS,2.04
9,YVPESVKKAEKKLEENPYDLDAWS,3.44
10,YVPERVKKAEKKLEENPYDLDAWS,2.72
11,YVPEVVKKAEKKLEENPYDLDAWS,2.32
12,YVPEHVKKAEKKLEENPYDLDAWS,2.28
13,YVPELVKKAEKKLEENPYDLDAWS,2.07
14,YVPEIVKKAEKKLEENPYDLDAWS,2.95
15,YVPEGVKKAEKKLEENPYDLDAWS,2.25
16,YVPEQVKKAEKKLEENPYDLDAWS,2.73
17,YVPEAVKKAEKKLEENPYDLDAWS,1.62
18,YVPEKVFKAEKKLEENPYDLDAWS,2.26
19,YVPEKVPKAEKKLEENPYDLDAWS,3.13
20,YVPEKVVKAEKKLEENPYDLDAWS,1.91
21,YVPEKVWKAEKKLEENPYDLDAWS,2.89
22,YVPEKVMKAEKKLEENPYDLDAWS,1.52
23,YVPEKVCKAEKKLEENPYDLDAWS,2.12
24,YVPEKVSKAEKKLEENPYDLDAWS,2.47

row,Variant,protein stability index
1,YVPEKVTKAEKKLEENPYDLDAWS,2.94
2,YVPEKVAKAEKKLEENPYDLDAWS,2.17
3,YVPEKVQKAEKKLEENPYDLDAWS,2
4,YVPEKVEKAEKKLEENPYDLDAWS,2.56
5,YVPEKVGKAEKKLEENPYDLDAWS,1.91
6,YVPEKVIKAEKKLEENPYDLDAWS,2.17
7,YVPEKVLKAEKKLEENPYDLDAWS,3.11
8,YVPEKVNKAEKKLEENPYDLDAWS,3.83
9,YVPEKVRKAEKKLEENPYDLDAWS,2.73
10,YVPEKVYKAEKKLEENPYDLDAWS,2.48
11,YVPEKVDKAEKKLEENPYDLDAWS,2.54
12,YVPEKVHKAEKKLEENPYDLDAWS,3.08
13,YVPEKVKKAFKKLEENPYDLDAWS,2.32
14,YVPEKVKKARKKLEENPYDLDAWS,2.63
15,YVPEKVKKANKKLEENPYDLDAWS,3.24
16,YVPEKVKKAIKKLEENPYDLDAWS,1.86
17,YVPEKVKKAMKKLEENPYDLDAWS,1.55
18,YVPEKVKKAQKKLEENPYDLDAWS,3.08
19,YVPEKVKKADKKLEENPYDLDAWS,1.92
20,YVPEKVKKAHKKLEENPYDLDAWS,3.67
21,YVPEKVKKAWKKLEENPYDLDAWS,1.98
22,YVPEKVKKAPKKLEENPYDLDAWS,2
23,YVPEKVKKAKKKLEENPYDLDAWS,3.68
24,YVPEKVKKAYKKLEENPYDLDAWS,2.86

row,Variant,protein stability index
1,YVPEKVKKAVKKLEENPYDLDAWS,2.18
2,YVPEKVKKASKKLEENPYDLDAWS,2.56
3,YVPEKVKKACKKLEENPYDLDAWS,3.32
4,YVPEKVKKAAKKLEENPYDLDAWS,1.93
5,YVPEKVKKAGKKLEENPYDLDAWS,2.97
6,YVPEKVKKATKKLEENPYDLDAWS,1.74
7,VVPEKVKKAEKKLEENPYDLDAWS,4.97
8,HVPEKVKKAEKKLEENPYDLDAWS,3.9
9,PVPEKVKKAEKKLEENPYDLDAWS,5.24
10,WVPEKVKKAEKKLEENPYDLDAWS,4.24
11,LVPEKVKKAEKKLEENPYDLDAWS,4.43
12,AVPEKVKKAEKKLEENPYDLDAWS,5.5
13,DVPEKVKKAEKKLEENPYDLDAWS,5.2
14,IVPEKVKKAEKKLEENPYDLDAWS,4.63
15,TVPEKVKKAEKKLEENPYDLDAWS,4.88
16,EVPEKVKKAEKKLEENPYDLDAWS,5.59
17,QVPEKVKKAEKKLEENPYDLDAWS,5.31
18,SVPEKVKKAEKKLEENPYDLDAWS,5.23
19,CVPEKVKKAEKKLEENPYDLDAWS,4.97
20,RVPEKVKKAEKKLEENPYDLDAWS,5.17
21,GVPEKVKKAEKKLEENPYDLDAWS,5.31
22,NVPEKVKKAEKKLEENPYDLDAWS,5.14
23,MVPEKVKKAEKKLEENPYDLDAWS,4.81
24,FVPEKVKKAEKKLEENPYDLDAWS,2.56

row,Variant,protein stability index
1,KVPEKVKKAEKKLEENPYDLDAWS,5.08
2,YNPEKVKKAEKKLEENPYDLDAWS,4.47
3,YKPEKVKKAEKKLEENPYDLDAWS,4.25
4,YTPEKVKKAEKKLEENPYDLDAWS,3.18
5,YIPEKVKKAEKKLEENPYDLDAWS,2.33
6,YSPEKVKKAEKKLEENPYDLDAWS,4.67
7,YHPEKVKKAEKKLEENPYDLDAWS,2.25
8,YGPEKVKKAEKKLEENPYDLDAWS,4.5
9,YMPEKVKKAEKKLEENPYDLDAWS,3.92
10,YEPEKVKKAEKKLEENPYDLDAWS,4.84
11,YLPEKVKKAEKKLEENPYDLDAWS,4.51
12,YWPEKVKKAEKKLEENPYDLDAWS,3.94
13,YPPEKVKKAEKKLEENPYDLDAWS,3.87
14,YYPEKVKKAEKKLEENPYDLDAWS,4.37
15,YRPEKVKKAEKKLEENPYDLDAWS,4.48
16,YFPEKVKKAEKKLEENPYDLDAWS,4.31
17,YAPEKVKKAEKKLEENPYDLDAWS,1.92
18,YCPEKVKKAEKKLEENPYDLDAWS,2.32
19,YQPEKVKKAEKKLEENPYDLDAWS,4.07
20,YDPEKVKKAEKKLEENPYDLDAWS,4.2
